{"source": "patent US20230002502A1", "about": "“METHODS AND PRODUCTS FOR REDUCING SIDE EFFECTS ASSOCIATED WITH USE OF IMMUNE AGONIST ANTIBODIES” (South Australian Health and Medical Research Institute …, priority 2019, published 2023)", "origin": "cited, not measured here", "system": "patients", "conditions": "for toxicity reported in clinical trials: patients", "note": "Entries after “also recorded” stand apart in the source; their conditions may differ. Like-named read-outs stand apart in the source and are kept apart here.", "data": [{"substance": "urelumab: an anti-CD137 IAA, IgG4", "values": [{"measurement": "clinical trial results at lower dose", "setting": "8 mg/patient, alone or in combination with anti-PD1", "result": "overall disappointing results"}, {"measurement": "toxicity reported in clinical trials", "result": "severe dose-dependent liver toxicity; also recorded: high rates of dose dependent liver toxicity, resulting in several deaths"}, {"measurement": "toxicity reported in clinical trials", "setting": "listed as Urelumab", "result": "severe (grade 3 and above) liver damage"}]}]}
